Assay results taken from the DeepSol protein solubility set.

Test: soluble on expression in E. coli; label from the status in PepcDB or PDB records

Sequence | soluble on expression in E. coli
MSLKLHKGIKEYECKECHRRFAQKVNMLKHCKRHTGIKDFMCELCGKTFSERNTMETHKLIHTVGKQWTCSVCDKKYVTEYMLQKHVQLTHDKVEAQSCQLCGTKVSTRASMSRHMRRKHPEVLAVRIDDLDHLPETTTIDASSIGIVQPELTLEQEDLAEGKHGKAAKRSHKRKQKPEEEAGAPVPEDATFSEYSEKETEFTGSVGDETNSAVQSIQQVVVTLGDPNVTTPSSSVGLTNITVTPITTAAATQFTNLQPVAVGHLTTPERQLQLDNSILTVTFDTVSGSAMLHNRQNDVQIHPQPEASNPQSVAHFINLTTLVNSITPLGSQLSDQHPLTWRAVPQTDVLPPSQPQAPPQQAAQPQVQAEQQQQQMYSYEGHHHHHH | not soluble
MIDSRLLAWAYLSKVVEGPNAHLQKLLKEGHDVERIAFGIKHREEWIGEGLLKNTDSRYSIDTAQTDLETIAKLGGRLITPEDDEWPMEELDHAFGFAASGMSDHVRTYQDDALPPHALWIRGGNLRTLSAQSVTLVGTRAISQYGTEVTREFTQNLVSHQWTIISGGALGVDSVAHSEAVRAQGSTIAIAACGLDRSYPSHNRDLFNQIAKSGKGALVSEYPPGTPPQRHRFLTRNRLVAALSQGTVVVEAAWRSGALNTLSWCAGLGRIAMAVPGPVNTAGSLGCHERIRNGSAQMVTSADDVRSLLGAVGAMDSQTQYELNFAATPVQGLTRNELRVFDALDDRGEGREAASIATEAGLTLQLTIFLLIALNKRGIVKRDGTAWSRNAEMP | not soluble
MGFSKKSQFEGGLESDGKKWVIAGISIRASLKPVKTKLRAPPEIVTEVEEDCYNEEEECSTTPTAKETKIPELLECPPAPRKRRPALKCRSNVVREFFTPPSDLETVFLRRR | not soluble
MLSRKIIEESDIYLATSTRDPELFPLVIDHGEGVWIYDVDGNKYLDFTSGIGVNNLGWPSHPEVIKIGIEQMQKLAHAAANDFYNIPQLELAKKLVTYSPGNFQKKVFFSNSGTEAIEASIKVVKNTGRKYIIAFLGGFHGRTFGSISLTASKAVQRSIVGPFMPGVIHVPYPNPYRNPWHINGYENPSELVNRVIEFIEDYIFVNLVPPEEVAGIFFEPIQGEGGYVIPPKNFFAELQKLAKKYGILLVDDEVQMGLGRTGKLFAIENFNTVPDVITLAKALGGGIMPIGATIFRKDLDFKPGMHSNTFGGNALACAIGSKVIDIVKDLLPHVNEIGKIFAEELQGLADDVRGIGLAWGLEYNEKKVRDRIIGESFKRGLLLLPAGRSAIRVIPPLVISEEEAKQGLDILKKVIKVVK | soluble
MVTSEQLLFLEAWRAVDRAYVDKSFNGQSWFKLRETYLKKEPMDRRAQTYDAIRKLLAVLDDPFTRFLEPSRLAALRRGTAGSVTGVGLEITYDGGSGKDVVVLTPAPGGPAEKAGARAGDVIVTVDGTAVKGLSLYDVSDLLQGEADSQVEVVLHAPGAPSNTRTLQLTRQKVTINPVTFTTCSNVAAAALPPGAAKQQLGYVRLATFNSNTTAAAQQAFTELSKQGVAGLVLDIRNNGGGLFPAGVNVARMLVDRGDLVLIADSQGIRDIYSADGNSIDSATPLVVLVNRGTASASEVLAGALKDSKRGLIAGERTFGKGLIQTVVDLSDGSGVAVTVARYQTPAGVDINKIGVSPDVQLDPEVLPTDLEGVCRVLGSDAAPRLFG | soluble
MPTPFRDLHNKSNASASSYETAWSSSFSSRRSTNNDSKSNLKEIKDEPISNLDESISILENNISMMSVSSPTPAYRTPARVIAREAPMTPGDRLLQKIEKEDERDMLRQLYPEMFDSNQKPRQKPKEVKKALKVESLSDYENDDKENVPPCGKPSKEKEEKKQRTKKIVISSDSEDDGNFENYLKTLREKPTEPAKPERKIPVKKDFVVDDDYISEESSEEESEEEEEDVDDEEYRESSPEVEAKISYSDRKQKKRPTDEEEWFLLSLSEKFSGPIHEDAKVYIKETSLRYKKHRESLLTRLQDILVRRIFSAIPSEKLKVIWNARLRKSAGQCRNHSNGNSTVEMSPVVCTTAERVRDTLIHELCHAATWVVDRLHKEGHGPGWKRWGARCSSVFKSLPFIERCHSYEIEAKFFYVCEKDGCDVEIKRQSKSLDTSRKACGRCFGRFILYRYCRRTNTRIRIEDPKAKPVGPILSNSSKPSPPAPRRIVSEHPEGFKEYSEEHYWKYTAQGLKHSDVMGKLLKEFKELKQL | not soluble
MGSDKIHHHHHHMRRCPLCTSEETAPFYQDRKRCIYRCKRCMLLFADANSHLPPSAEVKRYRSANSKDKPLQQFLSSLITQCEQQVQGPLLGLNFGRLLNPQAIDAIKARGHQLNQYDPHFAPDHTLLRLEYDFICCYRVFEHFRFPGKEWQLLCSLLKPGGWMAISTQLLTELQGFPKWHHKNNLTHVSFYQQATFQYLASQAEFRLLFASKDLILVQKPTGSGITRDPSSLI | not soluble
MNTDFQNILKQLGKQAQKEAAEKQAAEKNKQKQEQDFDFSQAVGQLSPLKNRQQYYAPPDKTPIKVRPKDNRADEENYFYIGSTYNDPPASFSKNGQGKNDIQRLKNGYYPVVTDVDLHGYTQEEAQKVLNEFIAFTQKRGVCGEIIHGSGLGSKGYKPVLKNMTRNWLMQHPDVLAYAEPREGNDGCVRILLKRKLRQQD | not soluble
MYCKPHRPGNTPQVPDNKGKCTRLVDYLSKESQVERPYYDNFFSQQKDYVIPLTVKNHIDNNHRTLKSNDDKFYMLSINPSGDEQRHLIERVTGRKVGEFSELTPGEQESVLAQMKKFTRECMDEYARNFYREKIKSGDDLVWYGRVETERHYKNDDPEVKAGRVKAGDKKPGLQLHVHVIVSRMDRTQTVSLSPLSKSRGNRQILEGREVVVGFDRSQWSSRCASRFNQSYDYFPNYYSRDESLRKYSENWQAKNELKNEAVSKLKQEVLKGELKEERRLYANTFRIYRFVVNPRKAIIQELKRLGTDLLSGRDL | not soluble
AHQTKVDTLIVTNSKAWKPFSYVSQDGEPKGILIDFWREYAERNHVRVEFLLLDWEESLRAVKEGRADVHAGLIYSEARDKYLDFGAVIMPIQTKLYVNKDMLAVDIKGVLTGEVELPIGLVKGSYEAEFVRANYPRASLVEYLNNDAMIRAAVEKNILYFVADLQVAN | not soluble
MSLSYRIDGLQYANWSEKIFRQLRAGNVDAVHVTIAYHESFRETVLNFEKWNRWFEQYPDLIMKGQWASDIDTARETGRTAIFFGFQNPSPIEDDIGLVEILHTLGARFMQLTYNNQSLLATGCYEAEDAGITRMGRQVIKEMNRVGLVVDMSHSADRSTIEAVEISERPIAITHANPHDWAPALRNKRDDVIRAVTENGGMLGFSVYPHHLKDKSDCTLDSFCEMIARTAERYGVDHLGIGTDLCQDQPDSVVEWMRTGRWSKEIDFGEGSASAPGFPPMPHWFEDNRDFGNIENGLRATGLNKDEVAGIMGGNWYRFFAQNFVPQGEGHHHHHH | soluble
MGSDKIHHHHHHMRTSTHAEVLTYSDEQTSVRHLQNSAPLALKHTISPAEIRDNLPAGQGGVGFLFHATDWDTLSFSFHNVKHRNASFEEELWRTKPFIASPIYSGSQIIGANIACPVPLELWLGSPRGIKRFRETQFFPALELARQAGLNMVAMGASTPYACNYGALPRDTRPPHITTGHAATAAMLKDWAMHCCNELDLEFGKSKLALFGAAGRLGTTVAKYALYKDAPRELVLIDLPDKVNLLTEQAKELMASDLLGKTRVSVHTFSPHTPLPDFDGAILASSTSVPYLTAADLRRAQFWIDDSHPRAASVEAELASRGHTLYIECFARGPAGLNTTFPFRLPTTRDCYTCFAEGYSAWQEGIASDFIIGSPPVWSVSYTHSLLKKYGFAVGPFHGKNGSPITLDTQLRGKQELMSS | not soluble
MAHHHHHHMTDMELVEALNATEVPIARAVFLMISAVQDADAGDNKTWSCCHPDRSPAASPGSTTGWRSLRESPSGPAVIEVCYNDGADSFLTVKWVPMDKTHLVMITQRSDRERSHQPLNTSFCIEDEPLASLVLGQQTGSGASAAAMWTAESLGSALHRLRCLLQSAIGNTGRGSEQNEKFSAAQDSDCGRELPSPRRRNLVILNSTAVDPPLLLPLPCLPKAVCYLREWSRVLPAPVTAKRISSPVVEVLVWVAA | soluble
MPNITWCDLPEDVSLWPGLPLSLSGDEVMPLDYHAGRSGWLLYGRGLDKQRLTQYQSKLGAAMVIVAAWCVEDYQVIRLAGSLTARATRLAHEAQLDVAPLGKIPHLRTPGLLVMDMDSTAIQIECIDEIAKLAGTGEMVAEVTERAMRGELDFTASLRSRVATLKGADANILQQVRENLPLMPGLTQLVLKLETLGWKVAIASGGFTFFAEYLRDKLRLTAVVANELEIMDGKFTGNVIGDIVDAQYKAKTLTRLAQEYEIPLAQTVAIGDGANDLPMIKAAGLGIAYHAKPKVNEKAEVTIRHADLMGVFCILSGSLNQK | not soluble
VTLLEQNPRWRLVPRGQAVNLRCILKNSQYPWMSWYQQDLQKQLQWLFTLRSPGDKEVKSLPGADYLATRVTDTELRLQVANMSQGRTLYCTCSAAPDWGASAETLYFGSGTRLTVL | soluble
MSANREKKKLETVIKNLEKKIEDQKANAGTKKKEAEQKENLRIEQEKIKKKKEQERLEVPPTPFDDLNSQSAKTLRVEKAIENLKFLGGKSTEFYRRVIGRLGKSGLFKWKMSKREGFYLYHACGLTRRKLRTLKAHFSKSGCSDPFPSVHEIMKIEKIVGAGEQFSVTEHDKDGEEVVAAHLVDVIKYLTDRIHHLIDNGNLVIGTDPIWLTILGDKGSDEFKLCLSIGNAKNPNSCCHLIPLGIFNDDEKSSNISNDLTPIVAQLNSLKELKLKVAGTDVTVPVQQFLGGDMKFQYDVLGHQGASSQFHCMFCNSLKSRLIGGYIRGANVTLRTAASYKENSGKDGNNYARKKSVSIRSRQSTKCDPRSLHTLMGLAQRFGFDYLILWAARIDNPTLTLTKTDIKRSKISKGRLNQLQESLKKLEKVVSGMETVQQVFQNYKNKRVDGRSCGETCHASICLFKDKKMKSAKGYDGRKVECNTCFQAVHAVCGGLWTLDDWELTISIFRENNRHLNELRSDLREKKSVIFSQGLKIDMLESQLSQRQTEFEYRSANAAANSFTRKDHGKLYHCFDIKNQDSTSVSDTMTCRCSMKPCVFYLDSLPAAKTPSLTQLRRIVVLMQQKPSQKIDPKEMLLMTSMHLPFPMQEPSTEYFNAISGCSTSYICVEEMGIGFSFRRHVEKLWMKNLPPATNGTDKAANDLKNQLKVRRNVGKHDRTSRYARKSHN | not soluble
MGSDKIHHHHHHVSLIQEYKKQQNWRDWERYLESIPYSGEDTVIDLGCSVGDVSQLFSLRVKNVIGIDVNQDFIDICESQKSVNQTFICSDFLSLDSQLIESTNGIWSSFSLSYLRNPLDFLIYLNASMKQGGWIALLDISCFISGNLAKKSQYYEKVLKFELESYKSGIYDFDFGSKMLSMLQNAGFDIVYLDNDVTDPELNFTGAASAEIIHGWAARLNRMNRLKDEIGAEYPDFCNELLANLSSDTHEKRQNVRFIVARKPITSVNKATDSCAGVHSQ | not soluble
SLAHIVTLNTPYREDWLTQLADVVTDPDELLRLLNIDADEKLLAGRSAKKLFALRVPRSFIDRMEKGNPDDPLLRQVLTSQDEFVVASGFSTDPLEEQHSVVPGLLHKYHNRALLLVKGGCAVNCRYCFRRHFPYAENQGNKRNWQTALEYVAAHPELDEMIFSGGDPLMAKEHELDWLLTQLEAIPHIKRLRIHSRLPIVIPARITEALVERFARSTLQILLVNHINHANEVDETFRQAMAKLRRVGVTLLNQSVLLRGVNDNAQTLANLSNALFDAGVMPYYLHVLDKVQGAAHFMVSDDEARQIMRELLTLVSGYLVPKLAREIGGEPSKTPLDLQLRQQ | not soluble
MGSDKIHHHHHHKPGREFYASDIRESMEKGDKLAILMVHFGSAYPEARTQVLDVMNKRVKEAFPDVEVRQAYSARSVVSRLRAQGVWVQLPADALVELRDQGFTHVIIQPTIIIEGVEMEAIRKEAEQRKGLFKDLRVGNPLLYDDADYEAVMKAVSSPSGVTKNGAKLLVAHGTYHASNSAYAKLGYMFQTKGMKDYYTGTREGFPTIENVGEQMRQAGHKRVQLIPFMFVLIRGTENTVTDFWQKGLRQQGFDVDIYLKPLGENPAIRSLFIDHIRFAMKYKRATIFDRKKLYTH | not soluble
